Source: publication PMC5673899, “Structural basis for receptor recognition of pollen tube attraction peptides” (Nature Communications, 2017)
Entries after “also recorded” stand apart in the source; their conditions may differ.

Experiments:
[1] = test system: semi-in-vivo pollen tubes (wild type); assay: AtLURE-responsive wavy assay, wild-type pollen tubes; type: cell-based, Arabidopsis; conditions: 250 nM peptide in solid pollen germination medium
Protocol: (§1) Attraction activities of mutant AtLURE1.2 peptides were examined for semi-in-vivo pollen tubes growing through cut, pollinated pistils by gelatin-beads assay and wavy assay, [20]. For the gelatin-beads assay, pollen tubes were grown on solid pollen germination medium poured into a mold made with 1-mm thick silicone rubber and cover glasses. After hand-pollination, the topside cover glass was removed and the medium was covered with hydrated silicone oil (KF-96–100CS; Shin-Etsu). Attraction of pollen tubes toward the peptide was evaluated using AtLURE1 peptide containing gelatine beads under an inverted microscope (IX71, Olympus) equipped with a micro-manipulator (Narishige). For the AtLURE1-responsive wavy assay, the purified AtLURE1.2 peptide was added to solid pollen germination medium, which was melted at 70 °C and then cooled to a certain degree. The mixture was mixed by vortexing and poured into the mold. Pollen tubes of each genotype were grown through cut styles, as mentioned above. Each peptide (25 μM in 10 mM Bis-Tris (pH 6.0) and 100 mM NaCl) was diluted to 250 nM by cultivation medium in both assays. […]
(§2) pollen tubes. Fluorescence is from mRuby2 fused to the C-terminal of PRK6 receptors, showing that all of mutant PRK6 receptors localize normally to the plasma membrane of the pollen tube tip. […]

[2] = test system: AtPRK6^LRR D234A; assay: In vitro pull-down with AtPRK6^LRR mutant D234A; type: binding, Arabidopsis thaliana; conditions: wild-type AtLURE1.2
Text: (§3) The genes of AtPRK3 ^LRR (residues 1–241), AtPRK4 ^LRR (residues 1–277), AtPRK5 ^LRR (residues 1–279), AtPRK6 ^LRR (residues 1–262), MIK1 ^LRR (residues 1–633), MIK2 ^LRR (residues 1–707) were amplified from Arabidopsis cDNA library by PCR and cloned into pFastBac-1 vector with a C-terminal 6 × His-tag. Their identities were confirmed by sequencing. The mature form of AtLURE1.1 (residues 20–94), AtLURE1.2 (residues 20–90), AtLURE1.3 (residues 21–91), and AtLURE1.4 (residues 20–90) were cloned into pFastBac-1 vector, with a modified N-terminal hemolin signal peptide and 6 × His-SUMO tag. Point mutation constructs were generated by QuickChange Site-Directed Mutagenesis Kit (Strategene). All the proteins were expressed using the Bac-to-Bac baculovirus expression system (Invitrogen) in High Five cells at 22 °C. One liter of High Five cells (2.0 × 10^6 cells mL^−1) cultured in the medium from Expression Systems was infected with 25 ml recombinant baculovirus and the media was collected after 72 h of infection. Secreted LRR proteins were purified using Ni-NTA (Novagen) and size-exclusion chromatography (Hiload 200, GE Healthcare) in buffer containing 10 mM Bis-Tris pH 6.0 and 100 mM NaCl. […]
(§4) The purified His-tagged ectodomains of AtPRK proteins and MIK1, 2 were used to pull-down the AtLURE1.2 peptide. […] All the eluted samples were analyzed by SDS-PAGE and visualized by Coomassie blue staining. […]

[3] = test system: AtPRK^LRR proteins other than AtPRK6^LRR; assay: In vitro pull-down with other AtPRK^LRR proteins; type: binding, Arabidopsis; conditions: Ni-NTA, excess AtLURE1.2, on ice 30 min, washed five times; SDS-PAGE, Coomassie blue
Text: as §3, §4

[4] = test system: AtPRK3^LRR; assay: ITC, AtLURE1.2 titrated into AtPRK3^LRR; type: binding, Arabidopsis; conditions: 25 °C, 200 mM HEPES pH 7.0, 100 mM NaCl, ~0.9 mM AtLURE1.2 into 0.08 mM AtPRK3^LRR
Text: as §3, with “NaCl. The His-SUMO tag of the AtLURE proteins was removed by Prescission Protease at 4 °C overnight in buffer containing 25 mM Tris pH 8.0 and 150 mM NaCl.” for “NaCl.”

[5] = test system: prk6 pollen tubes transformed with PRK6 ΔN239I240; assay: Wavy assay, prk6 pollen tubes transformed with ΔN239I240 PRK6; type: cell-based, Arabidopsis; conditions: 250 nM wild-type AtLURE1.2 in medium
Protocol: as §1, §2

B1: AtLURE1.2: mature form of AtLURE1.2 (residues 20–90), defensin-like cysteine-rich peptide expressed in insect cells (protein)
chain: TLINGSSDEERTYSFSPTTSPFDPRSLNQELKIGRIGYCFDCARACMRRGKYIRTCSFERKLCRCSISDIK
modifications: left off: His6, N-terminal, cleaved | SUMO, N-terminal, cleaved
notes: mature form of AtLURE1.2 (residues 20–90), defensin-like cysteine-rich peptide expressed in insect cells
[1]
  wavy pollen tube response: caused pollen tube wavy response
[2]
  interaction in pull-down assay: greatly compromised; also recorded: significantly compromised
[3]
  interaction in pull-down assay: none of the other LRR proteins was found to interact
[4]
  binding in ITC: none of the purified AtPRK3^LRR, MIK1^LRR or MIK2^LRR proteins showed detectable interaction
[5]
  wavy and branched pollen tube behavior: branched behavior is not observed; also recorded: greatly compromised
